Publication PMC12804832

Biological target: T1, Msn2 DBD (Saccharomyces cerevisiae, UniProt P33748 643-704)
T1 sequence: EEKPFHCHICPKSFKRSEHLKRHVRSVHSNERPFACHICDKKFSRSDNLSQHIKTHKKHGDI
Assay: EMSA

B1: 51 bp DNA without motif (dsDNA)
DNA 1: CCTGCCACCTACACATACTTCCTACACAACCTGAGTCGTATTAATTTCGCG
DNA 2: CGCGAAATTATACGACTCAAGTTGTGTAGGAAGTATGTGTAGGTGGCGAGG
  binding result: no binding
